According to PMC5443481, “Binding of CIB1 to the αIIb tail of αIIbβ3 is required for FAK recruitment and activation in platelets” (PLoS ONE, 2017):

T1: calcium- and integrin-binding protein 1 (CIB1) (human (endogenous in platelets), UniProt Q99828 1-191)
T1 sequence (looked up): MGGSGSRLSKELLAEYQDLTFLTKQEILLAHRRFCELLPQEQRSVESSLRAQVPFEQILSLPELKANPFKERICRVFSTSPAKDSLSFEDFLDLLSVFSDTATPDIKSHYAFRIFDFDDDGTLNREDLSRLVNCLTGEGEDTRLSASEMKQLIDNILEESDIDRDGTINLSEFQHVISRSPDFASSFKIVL


Experiments:
[1] = molecular target: calcium- and integrin-binding protein 1 (CIB1) (human (endogenous in platelets)) (UniProt Q99828); assay: co-IP; anti-CIB1 immunoprecipitates (overnight 4°C, protein G-Sepharose) of pre-cleared 1% Nonidet P-40 lysates of washed human platelets exposed to BSA or immobilized Fg for ~45 min; blots for αIIb, FAK, c-Src; treatments: DMSO, BAPTA-AM (50 μM), cytochalasin D after adhesion
[2] = molecular target: T1, calcium- and integrin-binding protein 1 …; assay: cell-based or functional assay

Molecule	fold reduction of co-precipitated αIIb with BAPTA-AM against vehicle [1] [fold]	c-Src activation (pY418 blot of lysates) in human platelets on immobilized Fg; inhibition by the incorporated αIIb peptide, which blocks CIB1 with αIIb (m1+m2) [2] [fold]
integrin αIIb subunit of αIIbβ3 (receptor)	6	
KVGFFKRNRPPLEEDDEEGE (peptide, UniProt P08514 1020-1039, looked up) [αIIb cytoplasmic domain peptide]		> 8
